# Assay results published in a protein production outcome set (Wang et al. 2014).
# Assay: label from the status in PepcDB records
sequence,measurement,value
MPMPMACWCRRSRCRWMAPADRSDRKPEGDAVTLKRWLSGGVLMVASLVATTHAAELPAGMQQFDVQMERVRKQFDVPGIAVAIVKDGQVVLERGYGVRETGKPAPVQADTLFAIASNTKAFTAASLSILADEGKLSLEDKVIDHLPWFRMSDPYVGGEMRIRDLLAHRSGLSLGAGDLLFWPTTSYTTEEVVQRLAKVPLKGGFRDRYAYDNILYAVAQKVIEQVSGQSYEAFLQQRIFAPVGMRGTRFNADHLQAGDHAAVGHAKYDFTELRTVAPLTWSNNSGAGGIYSSAHDMALWMNVQLAGGILPDGKPLFSAKRQHEMWSMITPIPIGEVQLPEFAAARPNFAGYGEGWSLSDYRGHRMVWHTGGWPGMVSRLTLLPDQKLGVVVLTNQEVGAAFNAVTFQVLDAFLRVPPTDWTAAYAKLVEKADSDADASWKKHQDARAARSTPSLPLRSYAATYRDPWYGDVVIVQDGKRLRLQFAKTAQLVGTLEHWQHDSFIVRWDDRSLNADAFVNFLLTPDGAVREMRMEPISPLTDFSFDFQDLVLTPVPTETAAGK,protein production,failed
MTYLETAAQFYSEVAQTPQVGLCCVQSTPLQLPGLKIPLPMQEMNYGCGTTVHPTELGKQPTVLYVGVGGGLEALQFAYFSRRPGAVIAVEPVAAMREAAARNLEMALTDNPWFDSSFVEIREGDAFNLPVADGSVDIVAQNCLFNIFEPEDLTRALKEAYRVLKPGGRLQMSDPIATSPVPAHLQQDERLRAMCLSGALTYEEYTQRIIDAGFGQIEIRARRPYRLLDSQTYNLETHLLLESLDSVSFKVPMPEDGACIFTGRTAIYAGCDAFFDDKAGHILQRGIPATVCDKTAAKLATVKPKEVIITDSTWHYNGGGCCLEHHHHHH,protein production,not failed
MASSLTKDSVTPGTPGTEKTFFGHPRGLATLFMTEMWERFSYYGMRALLPLYLVAPGGLGLGAGTATAIYSVYLSLVYLLTMPGGWFGDRVWGPRKTVAIAGGVIMLGHLTLALPSSGTFYAGLGLVAIGSGLLKANISTMVGQLYDGPDDPRRDGGFTVFYMGINLGAFAAPLTIGTIGENVNWHLGFALAAVGMGLGVLQFLIGSRHLAPHSSAVPKPLSVEEKTSTLRKAAFWAALAVVFYAIVGFSGHYTLNWILVPLTLLGVIIPVLVLTNIKRDKSLDRAEQSKMSAYIWFFVAAAVFWMIYDQGGSTLSLFADSSADNSVFGWSFPVSWYQSVNPVIIMALAPVFATVWLALNRRGKEPSTVVKFCGGLVLVGASFFLFLAPLGIAEGGHKAAAMWLVAIYFVQTCGELMLSPVGLSVTTKMAPVKYASQMMGVWFLAVTAGDATTGLLSIAGVDLNKTGIVAAEATLAVVAGVAIWMYRKRVKELMGDVR,protein production,failed
MKKILAFLLIAAGSTLFFVFLFIFLSKVFSGEILLSRYIFRIGGFELRWYSTLILMGFLISYFVARKRAKNEGINLEEFDELIFYGVIAGIVGARLYYVLFNLKYYRSLWDALKIWEGGLAIHGAVIGALLTGFLYVRLKKPSFTFLQATDLFTSVLPLGQAIGRWGNFFNYEAFGVPTNLPWKMFVPEPYRPVVYKDYSFFHPTFLYESIWDLLVFFMLSVYFKRYRKRHGEVTCLYFVLYSLGRIVIERLRVDSLMIGNIKAAQLLSAVLILLGFTGFLILRSSQEPKRAF,protein production,failed
SAEASSANLGSGCEEKRHEGSSSESVPPGTTISRVKLLDTMVDTFLQKLVAAGSYQRFTDCYKCFYQLQPAMTQRIYDKFIAQLQTSIREEISDIKEEGNLEAVLNALDKIVEEGKVRKEPAWCEAQRCRVQQRCSLCVQAGGQRGSEETQALPVSMAGSPSPLPGSPGAQEGGV,protein production,failed
MAKIITPLSANQVKNAKPGDKLYKLSDGGGLALWVYPTGRRSWKLSFMQDGRQQTISLGRYPDFSLAEAREWREEVRRKRAHGENVVNKKVRADFAFEKVARDWFVRWSKGRSEKYAGQVMRNFERWVFPAIGNLDIRQVRTADVVGCLRVMEARGIVDTLRKTKNSLKMVFAFAVGSGMMEINPVAQIGSGVFERVKTKNMTALSPSELPRLIDFLEQRNEFAVYAGRVHIHPVTRFCIYWLLLTMTRIREAALMEWSELDGEVWRIPAERKKERRGHDVPLSRAMRWVLDQARGLNVNGRFVFESVNFQGHINKESPHVAMRRSGLDTTAHGLRSLARTYLREVLKVYNDVAEKLLAHSLGTRTQTAYNRSELWEERKDAPERWGNDVLRLADNGK,protein production,failed
MKKAAAYTFCFLLLSGVGIILFMDIHPAFGGIPTTEQKEAYRELDNYVDGNFVNDVPTRRAFVDPSDTTSTTNTSASEVKDRNPVSPIPVYVIDWNKINSENDSLTWFGHSAFLLNVDNKQLLIDPMLGPVVSPVSFVGRNRYEYSEDIMLHLIDEMPPIDAVLITHDHYDHLDYRSIVKLNNKVSHFFVPLGCSAHLIRWGIPEEKITELNWWEETEYQGLTVALTPSRHSSGRNPFNIDTTLWGGWVILGNKTRVYTSGDSGYGPHFKQIGDKYGPFDITLIEGAQYDRNWPDLHMVPEQAIQANLDVGGKTMMLMHWGAFTLANHAWNEPIERALKEAKIREVNIIAPMIGETVLLDSDLQTSPTSWWDF,protein production,failed
MEDLVTAPTPLDKRWLTEAVRLREEHAGPLEDQEANRHARQLGGDLATRIETRALFLAERDDMTGALRHWKQGARLALLALLLMAVLSGTGLGLAALGDGQRPVNVFWALGSLLGLNLLMLLGWGMGFALSGEHGAGLGRLWLWLSERFARDAKAAHLAPALLVLLQRQRLNRWLLGLLVHGLWLLAMLTALGMLLVLLATRRYGFVWETTLLAADPFIHLTQALGALPSLLGFAVPDEAMIRASGDSLPALDVARQAWASWLLGVVLVYGLLPRLLLAGLCLWRWRQGRERLTLDLGLPGYAQLREALMPRSERIGVQDAAPQALPQFAAGQLESGSSGALLVGLELDDQRPWPPALPKSVTDAGVLDSRESRNRLLEQLSRFPPARLAIACDPRRSPDRGSLALLAELARNAGATRIWLLQAAPGQPLDAERLGDWHEALDRLGLQHADTSPLTWLEHGHD,protein production,failed
MLIENAVDFIENANIGIHTVSPEGIIKYANEHELTVLGYTEDEYVGHHVSEFQFDKSCLEQMMIKLAKFESFSNFPAMVCGKLKMKYILYNSSVYAEDGEFVHTRCFGNEISKSVYQACKVDYKKSLTNRVD,protein production,failed
LPSDVTEGKTVFIRNLSFDSEEEALGEVLQQFGDLKYVRVVLHPDTEHSKGCAFAQFMTQEAAQKCLAAASLEAEGGGLKLDGRQLKVDLAVTRDEAA,protein production,not failed
MAQGFKITYTDQACLLDIQDPQNKESQSFHYALVPRGVEAENIPADYTVIETPIRSVICMTSLQLSNFIKLEELDAVVGITSTRHLFNKKINDRLKDGSIHKIGIEGNFDNEVIMSVNPDLILISPFKRGGYDALKEVGIPLMPHLGYKEMTPLGQAEWIKFVGLLLGREDKANKQFAAIKKRYNELKELTGLEHHHHHH,protein production,failed
MSADLKQSRLADWRQRALAFEREVGKAVIGLERPIRHILIAVFARGHVMLEGDVGVGKTTLLRAVARCLGGAYERVEGTIDLMPNDLVYHTYINELGKPQVEPGPVLKHGEELSVFFFNEVNRARPQVHSLLLRIMAEHAVSAFNREHFFPYLQVFADRNRVEKEETFEIPSAARDRFMMELHVETPADPALRRALMFDPKFHDVDRLLDTLTPGILPYREIPQIAPVIQQSVTASETLQQYALDLWEATRRPADYGVKLEGIDMDRLILAGASARGVSMMMRAARVAAWLDGRDYLVPEDIHDVFRETIGHRVFFNPVYELRRTALIDELLHAIRQKVAAPLEHHHHHH,protein production,not failed
MIINDPVKITGIVDILIIIIFTSLGFRGFLRGFIKEISGFAEVFVLILLLYKKTEEFRRFVEPIIELSYIQALLVFFLLIHIGFLILQSLIESIISQLKLLFFNRILGLVLGLLEAFGIIAIVVYIIHSQQIFKPEYFLKESKLLDYLNPGINYLFKISKTK,protein production,failed
MAQLTPLDISFIAGYLLLTLLVGLFFSRRASENVGEFFLSGRKLPWWIAGTGMVATTFAADTPLAVAGFVAKNGIAGNWVWWTFVSGGMLTVFFFARLWRRANILTDLEFIELRYSGKAASFLRGFKAVYFGLFINAVIIGWVNLAMFKIIKIMIPGLDPQLTIVGLVIFTAIYSGMSGLWGVSITDAVQFVIAMAGCIILAVLAVNSPQVTAAGGLKQALPDWMFDFFPSFSSTVNTSATGAYALPFTAFAAMAFVQWWASWYPGAEPGGGGYIAQRMMSAKDEKNSLLATLWFTIAHYCVRPWPWIVVGLASLVMFPNLPAGQKEDGFVHVMNAVLPAGLKGLLIAAFMAAYMSTLSTHLNWGTSYLINDLYKRFIKREAEQNHYVLMSRIVTAVTAIFALYITFYVLETITGAWEFIIQCGAGTGFVLIMRWFWWRLNAWSEITSMVAPIVAYSYINQFTTIVFPESIYIIVLFTITCTLAVTWLTKPTDREKLHAFYRTTRVGGALWKPVADEMPDVKGDTGFPALFADWFFGIVLVYATLFGTGKLIFGEPVAAALYYAAGALAGVMIYRDLSKRNWKTFD,protein production,failed
MTAGHGIAALPGTMRVFERGWLSSNNILFFDDDAHGGCALVDSGYLTHAPQTVALARHALQGRPLRRLLNTHLHADHCGGNAALQAAYGCRIRVPAAQIGDVRRWDTDALSYRPTGQQCERFTLPEGDTAEAGLADGMTARLGGLDWQVISAPGHDPHAVILYSPDTRVLLSADALWERGFGVIFPELEGESGFAEQEAILACIARLGARVVVPGHGRPFTEVDAAIDAARGRLAYLRADPERNALHALRVLVKFKLLEQQAMTREALAAWFAQASLIPRLQARFFAATPLPALLEATVAALVKAGAAAVEATRIVNRG,protein production,failed
MSLIAIVLVFIMAIVVTVFLSHLLPVKVPLPLIQIAAGAALAASGFQVDFDPHIFLLLFIPPLLFLDGWRIPKDAFFRDMKPILSLAIGLVMVTILGIGLFIHWLIPAITVAAGFALAAILSPTDPVAVSAMTASSPLPSRMAHILEGESLLNDASGLVAFNFAIAAVLTGSFSPGDAVVKFFLMAFGGILSGLVVVWVTGKCNNFLVRRTREEPAIQILISLLIPFAAYLLAEAFHVSGILAAVAAGIAMHYEQLSGPRLPATRMKSSAVWSMLQTTLNGMIFLMLGEQLPRMLRTLPAVASQAGVSSPWYLLLYAVAITLALGLMRFAWVWLSMKLTIFRRKRRGKAITVRPRFSILAVMALAGVKGSVTLAGILTLPVVLADGSPFPGRELLIFLSMAVILMSLVVAAIGLPFMTRYLADDLPHDTGKDDIGAVMTEVAINRLNALLDEPVEDPSEQALRADAGNMLLETYQRRLHYNDNDEGQDVGLELAKRARLEKYMQREVIIAQRQELFRLRRAHNISDITFYEVLREIDLKEESLR,protein production,failed
MSFASETKKELTHMDVSDSDAKVELAAFIRMNGAISFSNQLVIMDVQTENAAIARRMYQLLKDLYEVPIELLVRRKMKLKKNNVYIVRLKSGTRGILEDLRILEPPMTFTKSIDRGFVKKRSAKRAYLRGAFLASGSVNNPETSSYHLEIFSVYEEHNEAICALMNQFDLNARTLERKNGFITYLKEAEKITEFLSIIGATSALLHFEDVRIMRDMRNSVNRLVNCETANLNKTINAAVRQIDNIKYIQSTVGLEALPERLREIAALRIANEDVTLKELGEMLTTGQVSKSGINHRLRKLDQIAERLRSGETPAQVGLKVSNS,protein production,failed
GAPLKAVSAFAPPMKTQDFNLYTNEVHAKFDDYDLGMEYARQHNKPVMLDFTGYGCVNCRKMELAVWTDPKVSSIINNDYVLITLYVDNKTPLTEPVKIMENGTERTLRTVGDKWSYLQRVKFGANAQPFYVLIDNEGNPLNKSYAYDEDISKYINFLQTGLENYRKEK,protein production,not failed
MPTFNPELHAQTLNSERAYFVQPDADPAFTPHIGALVEMLTYARLTTLQAVEGLPEDQLWATAPGFANSIGTLLAHIAAVERVYHVLSFQGRDVTPEDDGAAYWGLTMGKEGTAPARLPTLDELRAELADARAETLRVFAAKDDAWLAEPLGPGWANQHWAWFHVMEDEVNHRGQLRLLRQVLAPEEGG,protein production,not failed
RSMEDVRLHRKEKGDAYSFNWSLKIEADFQLPFDPTHTSMEGLNLNLDQEPQVLAANLRKAFSGIVAGNVKAEGIREIECKGPFSIHGDPVLMKKLDKLLQDFVEQHRMKLPGGSDYEPCYRIAHP,protein production,failed
